This is an account of results in publication PMC11914300, “Immediate early splicing controls translation in activated T-cells and is mediated by hnRNPC2 phosphorylation”.

Common to all, as to conditions: protein: recombinant; tags: N-terminal Twin-Strep-SUMO, removed with PreScission protease; chain copies: 4; label: 5' 32P
Series [1] concerns the target T1, hnRNPC2 WT (UniProt P07910 1-306). In words: EMSA; 0-10 uM protein, 10 pmol RNA; EMSA: 20 mM Tris-HCl pH 8.0, 0.25 M NaCl, 1 mM DTT, 10% glycerol, 0.2 mM EDTA; 37 C, 20 min; 5% polyacrylamide gel. Background: Mobility shift assays separate free from complexed probe on a gel.
For another series, the target named is hnRNPC2 S115D (UniProt P07910 1-306, S115D). In words: EMSA; 0-2000 nM protein, 10 pmol RNA; no difference from WT; EMSA: 20 mM Tris-HCl pH 8.0, 0.25 M NaCl, 1 mM DTT, 10% glycerol, 0.2 mM EDTA; 37 C, 20 min; 5% polyacrylamide gel.
The target in series [2] is T1, hnRNPC2 WT. The series can be described thus: EMSA; 0-2000 nM protein, 10 pmol RNA; higher affinity than intron RNAs; EMSA: 20 mM Tris-HCl pH 8.0, 0.25 M NaCl, 1 mM DTT, 10% glycerol, 0.2 mM EDTA; 37 C, 20 min; 5% polyacrylamide gel.

T1 sequence (P07910 whole entry): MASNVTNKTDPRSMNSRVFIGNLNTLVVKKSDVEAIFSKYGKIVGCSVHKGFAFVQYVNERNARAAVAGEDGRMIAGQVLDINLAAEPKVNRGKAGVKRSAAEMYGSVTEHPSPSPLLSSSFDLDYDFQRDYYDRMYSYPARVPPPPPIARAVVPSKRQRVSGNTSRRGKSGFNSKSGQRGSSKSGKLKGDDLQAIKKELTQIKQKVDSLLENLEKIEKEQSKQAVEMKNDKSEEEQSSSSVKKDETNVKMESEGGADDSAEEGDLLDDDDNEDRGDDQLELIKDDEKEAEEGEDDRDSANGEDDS
hnRNPC2 S115D, sequence (P07910 whole entry S115D): as the sequence (P07910 whole entry) above, with S115D counted along it

B1: RPL10 intron 6 3' splice site RNA (ssRNA)
RNA: ACCCCCUGCACACUUACCCAAUCCUUUUAG
Consider B1, for which the binding result with hnRNPC2 WT [1] is given as “binds”.

B2: poly-U 45 nt (ssRNA)
RNA: UUUUUUUUUUUUUUUUUUUUUUUUUUUUUUUUUUUUUUUUUUUUU
On to B2, for which the binding result with hnRNPC2 S115D and in the series with hnRNPC2 WT [2] was “binds” in each case.

B3: eIF5A intron 5 3' splice site RNA (ssRNA)
RNA: AUCUCUUGGCUAUCCCUCUUGCUUCUCCAG
Regarding B3, in the series with hnRNPC2 WT [1], the binding result is recorded as “binds”.
